Data from PMC6123785.

How the values were obtained:
[1] = target: parathyroid hormone receptor 1 BRET-biosensor PTHR1_(Nluc/Halo618) (UniProt Q03431)
PTHR1 wild-type receptor = PTHR1 wild-type receptor (UniProt Q03431)
[2] = target: parathyroid hormone receptor 1 BRET-biosensor PTHR1_(Nluc/Halo618) (UniProt Q03431); remark: listed apart in the source

- change in intramolecular BRET of the PTHR1 (Nluc/Halo618) sensor in intact cells, 96-well plate, 37 °C, saturating ligand (Fig. 3d); serial dilutions for a concentration-response curve (Fig. 3e) [1]: 10%
- Supplementary Figure 6f: pEC50 of PTH(1-34), PTHR1 mediated cAMP response (FRET-based H187-EPAC cAMP sensor co-transfected with the wild-type receptor) (pEC50 (-log M)) (PTHR1 wild-type receptor): 9.52
- Supplementary Figure 6f: pEC50 of PTH(1-34), PTHR1 mediated cAMP response (FRET-based H187-EPAC cAMP sensor co-transfected with the biosensor PTHR1Nluc/Halo) (pEC50 (-log M)) [2]: 7.57
Substance: PTH(1-34) (peptide)
